{"source": "patent US20080113907A1", "about": "“Uses Of Galectin-2” (Charite-Universitat-Smedizin Berlin, priority 2004, published 2008)", "test_system": "chronic DSS colitis", "test": "Therapy of chronic DSS colitis, disease activity index (DAI)", "format": "in vivo, Balb/c mice", "details": "control 5.3 ± 0.7", "excerpt": "Colitis was induced in 30 8- to 10-week-old, female, Balb/c mice (Jackson Laboratories, Bar Harbor, Me.) by adding 5% DSS (Sigma Chemical Co., St. Louis, Mo.) (Dextran Sodiumsulfate (DSS) to their drinking water for the period of seven days and allowing them to drink ad libitum. At the 8th day DSS administration was stopped for another seven days. This scheme of DSS administration for seven days followed by a period of seven days pure water administration was repeated as shown in FIG. 15B. At the 29th day 20 mice were treated with Galectin-2 intraperitoneally (i.p.) parallel to DSS administration. In one trial of this treatment a group of 10 mice were treated with 2 mg/kg Galectin-2 once a day and in another trial the same total dose was distributed in two administrations for a group of ten mice, e.g. 10 mice were treated with respectively 1 mg/kg Galectin-2 twice a day. Parallel a group of 10 mice was treated with 0,9% NaCl instead of Galectin-2 as control. At the 8th day the Galectin-2 treatment was stopped. Parallel to the treatment mice were weighed and inspected for diarrhea and rectal bleeding. After stopping the treatment mice were killed, their entire colon was resected, and its length was measured and weighed. The disease activity index (DAI; i.e., the combined score of weight loss and bleeding) was determined according to a standard scoring system […]", "data": [{"molecule": "galectin-2: β-galactoside binding lectin, non-covalent dimer with subunits of about 14 kDa; recombinant human or rat (SEQ ID NO:1, 2) (protein) MAGELEVKNMDMKPGSTLKITGSIADGTDGFVINLGQGTDKLNLHFNPRFSESTIVCNSLDGSNWGQEQREDHLCFSPGSEVKFTVTFESDKFKVKLPDGHELTFPNRLGHSHLSYLSVRGGFNMSSFKLKE", "values": [{"measurement": "DAI (disease activity index)", "setting": "1 × 2 mg/kg i.p. once a day", "value": "4.5 ± 0.6,"}, {"measurement": "DAI (disease activity index)", "setting": "2 × 1 mg/kg i.p. twice a day", "value": "2.8 ± 0.3,"}]}]}
